Data on two proteins can be found in article PMC6509496, “Crystal structure of the TreS:Pep2 complex, initiating α-glucan synthesis in the GlgE pathway of mycobacteria” (The Journal of Biological Chemistry, 2019).

This data set deals with the molecule itself. Briefly: SEC.

B1: Mycobacterium tuberculosis TreS P511W (enzyme)
chain: MNEAEHSVEHPPVQGSHVEGGVVEHPDAKDFGSAAALPADPTWFKHAVFYEVLVRAFFDASADGSGDLRGLIDRLDYLQWLGIDCIWLPPFYDSPLRDGGYDIRDFYKVLPEFGTVDDFVALVDAAHRRGIRIITDLVMNHTSESHPWFQESRRDPDGPYGDYYVWSDTSERYTDARIIFVDTEESNWSFDPVRRQFYWHRFFSHQPDLNYDNPAVQEAMIDVIRFWLGLGIDGFRLDAVPYLFEREGTNCENLPETHAFLKRVRKVVDDEFPGRVLLAEANQWPGDVVEYFGDPNTGGDECHMAFHFPLMPRIFMAVRRESRFPISEIIAQTPPIPDMAQWGIFLRNHDELTLEMVTDEERDYMYAEYAKDPRMKANVGIRRRLAPLLDNDRNQIELFTALLLSLPGSPVLYYGDEIGMGDVIWLGDRDGVRIPMQWTPDRNAGFSTANPGRLYLPPSQDPVYGYQAVNVEAQRDTSTSLLNFTRTMLAVRRRHPAFAVGAFQELGGSNWSVLAYVRQVAGDDGDTVLCVNNLSRFPQPIELDLQQWTNYTPVELTGHVEFPRIGQVPYLLTLPGHGFYWFQLTTHEVGAPPTCGGERRL
notes: also called Mtb TreS-P511W
For B1, the binding result is recorded as “binds”.

B2: Mycobacterium tuberculosis TreS R320E (enzyme)
chain: MNEAEHSVEHPPVQGSHVEGGVVEHPDAKDFGSAAALPADPTWFKHAVFYEVLVRAFFDASADGSGDLRGLIDRLDYLQWLGIDCIWLPPFYDSPLRDGGYDIRDFYKVLPEFGTVDDFVALVDAAHRRGIRIITDLVMNHTSESHPWFQESRRDPDGPYGDYYVWSDTSERYTDARIIFVDTEESNWSFDPVRRQFYWHRFFSHQPDLNYDNPAVQEAMIDVIRFWLGLGIDGFRLDAVPYLFEREGTNCENLPETHAFLKRVRKVVDDEFPGRVLLAEANQWPGDVVEYFGDPNTGGDECHMAFHFPLMPRIFMAVREESRFPISEIIAQTPPIPDMAQWGIFLRNHDELTLEMVTDEERDYMYAEYAKDPRMKANVGIRRRLAPLLDNDRNQIELFTALLLSLPGSPVLYYGDEIGMGDVIWLGDRDGVRIPMQWTPDRNAGFSTANPGRLYLPPSQDPVYGYQAVNVEAQRDTSTSLLNFTRTMLAVRRRHPAFAVGAFQELGGSNPSVLAYVRQVAGDDGDTVLCVNNLSRFPQPIELDLQQWTNYTPVELTGHVEFPRIGQVPYLLTLPGHGFYWFQLTTHEVGAPPTCGGERRL
notes: also called Mtb TreS-R320E
Consider B2, for which the binding result is “binds”.
